Assay results taken from US12624097B2, “Nucleic acids, vectors, and cells that encode anti-Sp17 antibodies and other Sp17 binding proteins” (Medicovestor, Inc., priority 2023, dated 2026).
Entries after “also recorded” stand apart in the source; their conditions may differ.

Tests used:
Sp17 protein = target: T1, Sp17 protein (Homo sapiens, UniProt Q15506); assay: Western blot detection of Sp17 protein; format: binding
T1 sequence (Q15506 1-151): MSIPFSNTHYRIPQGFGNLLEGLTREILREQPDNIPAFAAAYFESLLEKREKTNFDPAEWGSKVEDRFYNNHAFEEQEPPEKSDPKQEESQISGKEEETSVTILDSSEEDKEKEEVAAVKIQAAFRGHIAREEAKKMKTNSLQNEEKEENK
From the text: The nucleotide sequences encoding the VH and VL regions of Example 1 were cloned into a […] heavy chain gene and a mouse kappa light chain gene, respectively, and expressed in CHO-S cells to produce a mouse-human chimeric antibody, which was named chAB2. Successful generation of the antibody was confirmed by SDS-PAGE and western blotting using anti-mouse heavy and light chain antibodies and recombinant Sp17 protein (FIGS. 2 & 3).
The VH and VL nucleotide sequences of Example 1 were cloned into a human IgG4 heavy chain gene and a human kappa light chain gene, respectively. A Ser228Pro mutation was introduced in the heavy chain to reduce non-specific Fc receptor gamma binding. The resultant antibody was named SP17-AB2. Successful cloning was confirmed by sequence analysis. The amino acid sequences of the heavy chain and light chain are shown in Table 4, and the Ser228Pro mutation is underlined in SEQ ID NO: 11.

33 normal human tissues = assay: Immunohistochemistry on a normal tissue microarray (specificity); conditions: 33 normal tissues, 2-3 human donors per tissue
Description: The specificity of the chAB2 antibody for Sp17 was determined with immunohistochemistry on a normal tissue microarray, which consisted of 33 normal tissues obtained from 2-3 human donors per tissue. The normal tissues included brain, eye, adrenal gland, hypophyseal, thyroid, parathyroid, tonsil, thymus, spleen, heart, lung, larynx, esophagus, stomach, small intestine, colon, liver, pancreas, salivary gland, kidney, bone, skeletal, skin, peripheral nerve, mesothelial, breast, ovary, endometrium, cervix, testis, and prostate.

binding to Sp17 protein by western blot (Sp17 protein): Sp17 protein was detected
B1: chAB2: mouse-human chimeric anti-Sp17 monoclonal antibody; human VH/VL (SEQ ID NO: 3, 4) with mouse IgG2a heavy and mouse kappa light chain (antibody, V domains shown)
VH: QVQLQQSGAEVKKPGSSVKVSCKASGGTFSSYAISWVRQAPGQGLEWMGRIIPILGIANYAQKFQGRVTITADKSTSTAYMELSSLRSEDTAVYYCARPSEEVVAAYGAFDIWGQGTTVTVSS
VL: EIVLTQSPLSLPVRPGEPASISCRASQSLLRSDGFNYLDWYLQKPGQSPQLLVYLGSNRASGVPDRFSGSGSGTDFTLKISRVEAEDVGVYYCMQAVQTPYIFGQGTKLEIK
modifications: mouse IgG2a heavy and mouse kappa constant regions
binding to normal tissues (cross-reactivity) (33 normal human tissues): bound to testis and did not bind to normal tissues; also recorded: lack detectable cross-reactivity
